This assay deals with human CD166 on human cells or tissue (human) (UniProt Q13740). Put plainly: inhibition of adhesion of CD166-expressing HuT-78 cells to immobilized recombinant CD6.
Sequence of human CD166 on human cells or tissue (human) (Q13740 28-583): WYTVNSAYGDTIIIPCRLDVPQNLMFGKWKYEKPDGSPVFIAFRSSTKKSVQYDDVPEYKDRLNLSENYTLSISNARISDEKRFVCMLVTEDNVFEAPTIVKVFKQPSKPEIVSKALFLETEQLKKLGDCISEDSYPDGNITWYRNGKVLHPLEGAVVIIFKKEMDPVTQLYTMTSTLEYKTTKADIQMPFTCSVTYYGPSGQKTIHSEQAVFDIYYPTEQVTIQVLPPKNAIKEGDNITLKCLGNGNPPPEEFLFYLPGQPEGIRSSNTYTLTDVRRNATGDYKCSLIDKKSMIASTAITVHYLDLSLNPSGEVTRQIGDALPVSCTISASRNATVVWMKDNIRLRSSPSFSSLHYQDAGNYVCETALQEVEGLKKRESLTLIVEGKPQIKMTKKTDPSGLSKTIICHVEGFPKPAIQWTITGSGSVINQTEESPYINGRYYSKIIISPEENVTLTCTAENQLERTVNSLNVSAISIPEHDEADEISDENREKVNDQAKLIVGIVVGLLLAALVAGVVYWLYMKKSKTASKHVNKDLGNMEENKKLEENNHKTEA

The EC50 is the concentration that produces a half-maximal response. Consider MAB656 (antibody), for which the 50% effective concentration (EC50) came out at 3.7 nM.

The record behind these values is US20160355587A1.
